Columns and labels:
[1] = molecular target: T1, HER3 D2: CD33-[Human HER3, residues 185-329]-TAG (human, UniProt P21860 185-329); test: HER3 domain binding ELISA: recombinant protein coated on the plate, antibody titrated; the y axis reads 'Fluorescence Units'
T1 construct: also called D2-Tag; domain 2; not shown: C-terminal TAG (e.g. FLAG TAG)
Description: (§1) All wells were then washed with PBS/0.1% Tween-20, blocked with PBS/1% BSA/0.1% Tween-20 and washed with PBS/0.1% Tween-20. Anti-HER3 antibodies were added to the relevant wells up to a final concentration of 10 μg/mL and incubated at room temperature. Plates were washed with PBS/0.1% Tween-20 prior to the addition of the appropriate peroxidase linked detection antibody diluted 1/10000 in PBS/1% BSA/0.1% Tween-20. The detection antibodies used were goat anti-mouse (Pierce, 31432), rabbit anti-goat (Pierce, 31402) and goat anti-human (Pierce, 31412). Plates were incubated at room temperature before washing with PBS/0.1% Tween-20. 100 μl TMB (3,3′,5,5′ tetramethyl benzidine) substrate solution (BioFx) was added to all wells before stopping the reaction with 50 μl 12.5% H₂SO₄. […] Where appropriate, dose response curves were analyzed using Graphpad Prism.

[2] = molecular target: T2, HER3 D1-2: CD33-[Human HER3, residues 20-329]-TAG (human, UniProt P21860 20-329); test: as above
T2 construct: also called D1-2-Tag; domains 1 and 2; not shown: C-terminal TAG (e.g. FLAG TAG)
Description: as §1

[3] = molecular target: T3, human HER3 endogenously expressed on human cancer cells (SK-Br-3, BT-474, MCF7) (human, UniProt P21860 20-1342); test: cell-based or functional assay
[4] = molecular target: T3, human HER3 endogenously expressed on …; test: cell-based or functional assay; remark: listed apart in the source
[5] = molecular target: T4, Rat HER3: CD33-[Rat HER3, residues 20-643]-TAG (rat, UniProt Q62799 20-643); test: solution equilibrium titration (SET), IgG, ECL read-out
T4 construct: also called ra HER3-Tag; not shown: C-terminal TAG (e.g. FLAG TAG)

[6] = molecular target: T5, Cyno HER3: CD33-[Cyno HER3, residues 20-643]-TAG (cynomolgus monkey, UniProt G7PIG5 20-643); test: as above
T5 construct: also called cy HER3-Tag; not shown: C-terminal TAG (e.g. FLAG TAG)

[7] = molecular target: T6, Mu HER3: CD33-[Murine HER3, residues 20-643]-TAG (mouse, UniProt Q61526 20-643); test: as above
T6 construct: also called mu HER3-Tag; not shown: C-terminal TAG (e.g. FLAG TAG)

[8] = molecular target: T7, Hu HER3: CD33-[Human HER3, residues 20-640]-TAG (human, UniProt P21860 20-640); test: as above
T7 construct: also called hu HER3-Tag; HER3-Tag; not shown: C-terminal TAG (e.g. FLAG TAG)

[9] = molecular target: T3, human HER3 endogenously expressed on …; test: cell-based or functional assay; remark: listed apart in the source
[10] = molecular target: T3, human HER3 endogenously expressed on …; test: FACS titration of IgG on SK-Br-3 cells (endogenous HER3)
Description: The binding of antibodies to endogenous human antigen expressed on human cancer cells was accessed by FACS. In order to determine antibody EC₅₀ values SK-Br-3 cells were harvested with accutase and diluted to 1×10⁶ cells/mL in FACS buffer (PBS/3% FBS/0.2% NaN₃). 1×10⁵ cells/well were added to each well of a 96-well plate (Nunc) and centrifuged at 210 g for 5 minutes at 4° C. before removing the supernatant. Serial dilutions of test antibodies (diluted in 1:4 dilution steps with FACS buffer) were added to the pelleted cells and incubated for 1 hour on ice. The cells were washed and pelleted three times with […] FACS buffer. PE conjugated goat anti-human IgG (Jackson ImmunoResearch) diluted 1/200 with FACS buffer were added to the cells and incubated on ice for 1 hour. Additional washing steps were performed three times with 100 μL FACS buffer followed by centrifugation steps at 210 g for 5 minutes at 4° C. Finally, cells were resuspended in 200 μL FACS buffer and fluorescence values were measured with a FACSArray (BD Biosciences). The amount of cell surface bound anti-HER3 antibody was assessed by measuring the mean channel fluorescence.

| Binder | BT474 pHER3 % inhibition [3] [%] | BT474 pHER3 IC50 [3] [pM] | MCF7 pHER3 % inhibition [3] [%] | MCF7 pHER3 IC50 [3] [pM] | SK-Br-3 pHER3 % inhibition [3] [%] | SK-Br-3 pHER3 IC50 [3] [pM] | MCF7 proliferation % inhibition [4] [%] | MCF7 proliferation IC50 [4] [nM] | SK-Br-3 proliferation % inhibition [4] [%] | SK-Br-3 proliferation IC50 [4] [nM] | Kd [5] [nM] | Kd [6] [nM] | Kd [7] [nM] | Kd [8] [nM] | BT-474 pAkt % inhibition [9] [%] | BT-474 pAkt IC50 [9] [pM] | SK-Br-3 pAkt % inhibition [9] [%] | SK-Br-3 pAkt IC50 [9] [pM] | EC50 [10] [nM] | further results |
| --- | --- | --- | --- | --- | --- | --- | --- | --- | --- | --- | --- | --- | --- | --- | --- | --- | --- | --- | --- | --- |
| MOR12615 (antibody, human IgG1, lambda, V domains shown, Tested as IgG) VH: QVQLVQSGAEVKKPGASVKVSCKASGYTFTSYDIHWVRQAPGQGLEWMGRIDPYSGNTNYAQKFQGRVTMTRDTSISTAYMELSRLRSEDTAVYYCARGSFYTRDSYFDVWGQGTLVTVSS VL: DIALTQPASVSGSPGQSITISCTGTSSDVGTYNQVSWYQQHPGKAPKLMIYGVSKRPSGVSNRFSGSKSGNTASLTISGLQAEDEADYYCSSRDLIGHYVFGGGTKLTVLG | 56 | 421 | 75 | 447 | 71 | 179 | 42 | 2.54 | 40 | 0.121 | 0.31 | 0.257 | 0.336 | 0.102 | 63 | 466 | 86 | 101 |  | binding result [1]: no binding (tested: 10 µg/ml); binding result [2]: no binding (tested: 10 µg/ml); BT-474 proliferation % inhibition [4]: 35%; BT-474 proliferation IC50 [4]: 0.459 nM; MCF7 pAkt % inhibition [9]: 78%; MCF7 pAkt IC50 [9]: 815 pM |
| MOR14537 (antibody, human IgG1, lambda, V domains shown, Tested as IgG) VH: QVQLVQSGAEVKKPGASVKVSCKASGYTFTSYDIHWVRQAPGQGLEWMGRIDPYSGNTNYAQKFQGRVTMTRDTSISTAYMELSRLRSDDTAVYYCARGSFYTRDSYFDVWGQGTLVTVSS VL: QSALTQPASVSGSPGQSITISCTGTSSDVGTYNQVSWYQQHPGKAPKLMIYGVSKRPSGVSNRFSGSKSGNTASLTISGLQAEDEADYYCSSATQKPDVTVFGGGTKLTVLG |  |  | 73 | 200 | 69 | 97 |  |  | 48 | 0.047 | 0.285 | 0.14 | 0.22 | 0.21 |  |  |  |  | 0.179 |  |
| MOR12606 (antibody, human IgG1, kappa, V domains shown, Tested as IgG) VH: QVQLVQSGAEVKKPGSSVKVSCKASGGTFSSYAISWVRQAPGQGLEWMGLIIPRYGKARYAQKFQGRVTITADESTSTAYMELSSLRSEDTAVYYCARNWPYYYMDFWGQGTLVTVSS VL: DIVLTQSPATLSLSPGERATLSCRASQNIVFNLAWYQQKPGQAPRLLIYDASNRATGVPARFSGSGSGTDFTLTISSLEPEDFAVYYCQQTKSKPSPTFGQGTKVEIKR | 73 | 108 | 87 | 34 | 75 | 25 | 39 | 0.052 | 36 |  | 8.1 | 2.6 | 1.4 | 1.5 | 77 | 91 | 85 | 8 |  | BT-474 proliferation % inhibition [4]: 40%; BT-474 proliferation IC50 [4]: 0.127 nM |
| MOR14534 (antibody, human IgG1, kappa, V domains shown, Tested as IgG) VH: QVQLVQSGAEVKKPGSSVKVSCKASGGTFSSYAISWVRQAPGQGLEWMGLIIPRYGKARYAQKFQGRVTITADESTSTAYMELSSLRSEDTAVYYCARNWPYYYMDFWGQGTLVTVSS VL: EIVLTQSPATLSLSPGERATLSCRASQNIVFNLAWYQQKPGQAPRLLIYDASNRATGIPARFSGSGSGTDFTLTISSLEPEDFAVYYCQQTKNRPPTFGQGTKVEIKR |  |  | 71 | 16 | 63 | 10 |  |  | 40 | 0.027 | 30 | 6.35 | 4 | 2.15 |  |  |  |  | 0.028 |  |
| MOR14533 (antibody, human IgG1, kappa, V domains shown, Tested as IgG) VH: QVQLVQSGAEVKKPGSSVKVSCKASGGTFSSYAISWVRQAPGQGLEWMGLIIPRYGKARYAQKFQGRVTITADESTSTAYMELSSLRSEDTAVYYCARNWPYYYMDFWGQGTLVTVSS VL: EIVLTQSPATLSLSPGERATLSCRASQNIVFNLAWYQQKPGQAPRLLIYDASNRATGIPARFSGSGSGTDFTLTISSLEPEDFAVYYCQQTKSKPSPTFGQGTKVEIKR |  |  | 67 | 50 | 68 | 20 |  |  | 46 | 0.026 | 9.65 | 2.95 | 2 | 0.64 |  |  |  |  | 0.042 |  |

Continued, in another order:

| BT474 pHER3 % inhibition [3] [%] | BT474 pHER3 IC50 [3] [pM] | MCF7 pHER3 % inhibition [3] [%] | MCF7 pHER3 IC50 [3] [pM] | SK-Br-3 pHER3 % inhibition [3] [%] | SK-Br-3 pHER3 IC50 [3] [pM] | MCF7 proliferation % inhibition [4] [%] | MCF7 proliferation IC50 [4] [nM] | SK-Br-3 proliferation % inhibition [4] [%] | SK-Br-3 proliferation IC50 [4] [nM] | Kd [5] [nM] | Kd [6] [nM] | Kd [7] [nM] | Kd [8] [nM] | BT-474 pAkt % inhibition [9] [%] | BT-474 pAkt IC50 [9] [pM] | SK-Br-3 pAkt % inhibition [9] [%] | SK-Br-3 pAkt IC50 [9] [pM] | EC50 [10] [nM] | Binder | further results |
| --- | --- | --- | --- | --- | --- | --- | --- | --- | --- | --- | --- | --- | --- | --- | --- | --- | --- | --- | --- | --- |
|  |  | 83 | 615 | 71 | 263 |  |  | 53 | 0.081 | 0.051 | 0.026 | 0.023 | 0.045 |  |  |  |  | 0.279 | MOR14538 (antibody, human IgG1, lambda, V domains shown, Tested as IgG) VH: QVQLVQSGAEVKKPGASVKVSCKASGYTFTSYDIHWVRQAPGQGLEWMGRIDPYSGNTNYAQKFQGRVTMTRDTSISTAYMELSRLRSDDTAVYYCARGSFYTRDSYFDVWGQGTLVTVSS VL: QSALTQPASVSGSPGQSITISCTGTSSDVGTYNQVSWYQQHPGKAPKLMIYGVSKRPSGVSNRFSGSKSGNTASLTISGLQAEDEADYYCASADHSYHTVFGGGTKLTVLG |  |
| 62 | 142 | 79 | 57 | 71 | 29 | 39 | 0.073 | 42 | 0.015 | 5.2 | 2.2 | 1.9 | 1.1 | 70 | 225 | 85 | 17 |  | MOR12604 (antibody, V domains shown, Tested as IgG) VH: QVQLVQSGAEVKKPGSSVKVSCKASGGTFSSYAISWVRQAPGQGLEWMGLIIPRYGKARYAQKFQGRVTITADESTSTAYMELSSLRSEDTAVYYCARNWPYYYMDFWGQGTLVTVSS VL: DIVLTQSPATLSLSPGERATLSCRASQNIVFNLAWYQQKPGQAPRLLIYDASNRATGVPARFSGSGSGTDFTLTISSLEPEDFAVYYCQQKKSMPLTFGQGTKVEIKR | binding result [1]: no binding (tested: 10 µg/ml); binding result [2]: no binding (tested: 10 µg/ml); MCF7 pAkt % inhibition [9]: 74%; MCF7 pAkt IC50 [9]: 235 pM |

From patent US20130251703A1 (Novartis, published 2013)
